Consider 2 substances from paper PMC10532227.

Data set [1] relates to PARP1. The data set can be described thus: spFRET microscopy. Conditions: buffer, salt, pH and temperature of binding assays not given in the material (Methods 4.4-4.7 empty).
For data set [2], the target named is fluorescently labeled mononucleosomes assembled from octamers of recombinant human histones and DNA containing the 147 bp nucleosome positioning sequence 603 (human). The data set is described as follows: spFRET microscopy; as a2 but nucleosomes N(13, 91) (1 nM) preincubated 15 min with EGCG (0.8 µM) before PARP1 (20 nM), or PARP1 preincubated with EGCG; TB150 buffer, room temperature; then NAD+ (20 µM), 45 min.

Data set [3] shares this target. The data set is described as follows: spFRET microscopy; nucleosomes N(13, 91) (1 nM; Cy3/Cy5 on nucleosomal DNA) with PARP1 (20 or 50 nM), 30 min at room temperature in TB150 buffer (20 mM Tris-HCl pH 7.9, 5 mM MgCl2, 150 mM KCl, 1 mM β-ME); then NAD+ (20 µM), 45 min; no EGCG.

For N(13, 91) nucleosome, the binding signal (% nucleosomes bound) in data set [1] (20 nM PARP1, no EGCG) came to 65; in data set [1] (20 nM PARP1 added to nucleosomes preformed with 0.8 uM EGCG), 67.
As for “human poly(ADP-ribose) polymerase 1 fused with hexahistidine tag at the N-terminus (from UniProt P09874 1-1014) (enzyme)”, the percent of detected particles in the EGCG–nucleosome–PARP1 complex at 20 nM PARP1 and 0.8 µM EGCG in data set [2] is 67%. The percent of nucleosomes in the complex at 20 nM PARP1 in data set [3] came out at 65%.
